Data reported in paper PMC9106845 (2022).

Molecular target: T1, A02_YLQ peptide on HLA-A*02:01 (human)
T1 peptide: YLQPRTFLL
Test: multimer staining

B1: 839 (TCR)
alpha TRAV12-1 TRAJ47 CDR3: CVVNRADKLVF
beta TRBV7-9 TRBJ2-2 CDR3: CASSDANTGELFF
  binding result: recognises
